B1: Myc-Mal-TIR wild type (TIR domain of human MyD88 adaptor-like protein, residues 79-221, double-tagged with His6 and Myc) [human] / GST-Mal-TIR (TIR domain of human Mal, residues 79-221, GST fusion) [human] (parent)
chain 1: SSRWSKDYDVCVCHSEEDLVAAQDLVSYLEGSTASLRCFLQLRDATPGGAIVSELCQALSSSHCRVLLITPGFLQDPWCKYQMLQALTEAPGAEGCTIPLLSGLSRAAYPPELRFMYYVDGRGPDGGFRQVKEAVMRYLQTLS
chain 2: B1 chain 1

Variants of: B1
Experiment: GST pull-down, quantified Western blot
Conditions: with GST-Mal-TIR (TIR domain of human Mal, residues 79-221, GST fusion) [human]; n = 3 separate experiments; parent: 1; read off a plot

Variant | ratio to parent
chain 1 SSRWSKDYAVCVCHSEEDLVAAQDLVSYLEGSTASLRCFLQLRDATPGGAIVSELCQALSSSHCRVLLITPGFLQDPWCKYQMLQALTEAPGAEGCTIPLLSGLSRAAYPPELRFMYYVDGRGPDGGFRQVKEAVMRYLQTLS [chain 1 D9A] | 1.2
chain 1 SSRWSKDYDVCVCHSEEDLVAAQDLVSYLEGSTASLRCFLQLRDATPGGAIVSELCQALSSSHCRVLLITPGFLQDPWCKYQMLQALTEAPGAEGCTIPLLSGLSRAAYPPELAFMYYVDGRGPDGGFRQVKEAVMRYLQTLS [chain 1 R114A] | 0.91
chain 1 SSRWSKDYDVCVCHSEEDLVAAQDLVSYLEGSTASLRCFLQLRDATPGGAIVSELCQALSSSHCRVLLITPGFLQDPACKYQMLQALTEAPGAEGCTIPLLSGLSRAAYPPELRFMYYVDGRGPDGGFRQVKEAVMRYLQTLS [chain 1 W78A] | 0.6
chain 1 SSRWSKDYDVCVCHSEEDLVAAQDLVSYLEGSTASLRCFLQLRDATPGGAIVSELCQALSSSHCRVLLITPGFLQDPWCKAQMLQALTEAPGAEGCTIPLLSGLSRAAYPPELRFMYYVDGRGPDGGFRQVKEAVMRYLQTLS [chain 1 Y81A] | 0.41
